Key:
[1] = test system: renin/prorenin receptor (RER); experiment: RER mRNA by quantitative real-time PCR after renin/prorenin stimulation of HEK293 cells; type: cell-based, human
Method: (§1) HEK293 cells were seeded in 24-well plates and transfected with either 100 ng of pCEP4-PLZF-myc expression vector, 50 ng of indicated pGL3-basic construct and 10 ng of phRL-null plasmid (for luciferase assay), or 100 ng of pCEP4-PLZF-myc alone (for PCR experiments) per well as described above. siRNA transfection, renin stimulation and determination of reporter activity were performed as described above, except for an exceeded renin stimulation period of 3 hours.
(§2) RNA isolation and cDNA synthesis were performed as described above. qPCR was performed applying a SYBR Green I reaction mix and run on a Stratagene Mx3000P (Stratagene, La Jolla, Calif., USA) using the following primers: […]
(§3) Data represents the mean expression level±standard deviation (standardized to 18S rRNA expression) calculated according to the ddCT method of at least three independent measurements. Equality of PCR efficiencies has been verified applying the program LinRegPCR (Ramakers et al. 2003) and ANOVA testing.
(§4) For all cell culture studies immortalized human epithelial kidney cells (HEK293 cells) were used. […] Additional inhibition with 1 μM aliskiren was performed as indicated. 1 hour after pre-treatment with losartan±aliskiren cells were stimulated with either 5 nM renin, 5 nM prorenin, or the respective vehicle. Cells were harvested for mRNA expression analysis or determination of viable cell number and apoptosis after 3 or 24 hours, respectively. These experimental procedures have been described in detail previously (Schefe et al., 2006). All experiments were performed in independent triplicates.

[2] = test system: renin/prorenin receptor (RER); experiment: PI3K-p85α mRNA by quantitative real-time PCR after renin/prorenin stimulation of HEK293 cells; type: cell-based, human
Method: as §1, §2, §3, §4

[3] = test system: renin/prorenin receptor (RER); experiment: PI3K-p85α promoter luciferase reporter assay under renin stimulation; type: cell-based, human; conditions: PLZF-overexpressing HEK293 cells, renin vs control
Method: (§5) The indicated cell types were seeded on day 1 in 12-well plates. 100 ng of indicated pGL3-basic constructs (encoding firefly luciferase) and 20 ng of phRL-null plasmid (encoding humanized Renilla luciferase for standardization of promoter activity; Promega) per well were transfected on day 2 at 60-80% confluency using GeneJuice (Merck Biosciences, Bad Soden, Germany) according to the manufacturer's protocol. Cells were harvested 48 hours after transfection using Passive Lysis Buffer (Promega). Reporter activities were measured in a Pharmingen Monolight 3010 luminometer (BD Biosciences, Erembodegem, Belgium) using the Dual-Luciferase Reporter Assay System (Promega). Promoter activity is expressed as relative luciferase activity (RLA) (Funke-Kaiser et al., 2003a). RLA data represent the mean±standard deviation of at least three single, parallel transfection experiments.
as §1

[4] = molecular target: endogenous human RER of HEK293 cells (human) (UniProt O75787); experiment: cell-based or functional assay
HEK293 cells [5] = experiment: Caspase 3/7 activity as a measure of apoptosis; type: cell-based, human; conditions: for reduction of caspase 3/7 activity: HEK293 cells, 5 nM, 24 hours
Method: as §4

HEK293 cells [6] = experiment: Number of viable cells (ATP concentration); type: cell-based, human; conditions: for increase of viable cell number compared to vehicle: HEK293 cells, 5 nM, 24 hours
Method: as §4

[7] = test system: renin/prorenin receptor (RER); experiment: PLZF translocation, fractionated extraction of cytosolic and nuclear proteins and Western blot; type: cell-based, human; conditions: HEK293 cells, c-myc-tagged PLZF, 10 nM renin
Method: Cytosolic and membrane proteins were isolated using the ProteoExtract Subcellular Proteome Extraction Kit (Calbiochem, Darmstadt, Germany). A fractionated extraction of cytosolic and nuclear proteins was performed as described previously (Funke-Kaiser et al., 2003a). Protein concentrations were determined using the DC Protein Assay (Bio-Rad, München, Germany). Cytosolic, membrane and nuclear fractions were controlled by Western blot using antibodies against Akt (mouse monoclonal, 5G3; 1:1,000; Cell Signalling, Danvers, Mass., USA), angiotensin AT1 receptor (rabbit polyclonal, sc-579; 1:2,000; Santa Cruz Biotechnology, Heidelberg, Germany) and TBP (rabbit polyclonal, sc-204; 1:1,000; Santa Cruz Biotechnology), respectively.
For PLZF translocation experiments HEK293 cells were seeded on day 1 in 6-well plates. 250 ng of pCEP4-PLZF-myc expression vector per well were transfected on day 2 at 40-60% confluency using GeneJuice (Merck Biosciences, Bad Soden, Germany) according to the manufacturer's protocol. […] Chemoluminescence was detected with ECL (Amersham, München, Germany), and subsequent exposition to Hyperfilm (Amersham).

[8] = test system: renin/prorenin receptor (RER); experiment: RER promoter luciferase reporter assay under renin stimulation; type: cell-based, human; conditions: PLZF-overexpressing HEK293 cells, renin vs all controls
Method: as §5, §1

[9] = molecular target: T1, PLZF (promyelocytic zinc finger protein, ZBTB16), endogenous (Homo sapiens, UniProt Q05516 Q05516:1-673); experiment: ChIP-qPCR in HEK293; about 6-fold increased recruitment to the RER promoter region around the element after renin vs vehicle; conditions: tags: none (endogenous, HEK293)
T1 sequence: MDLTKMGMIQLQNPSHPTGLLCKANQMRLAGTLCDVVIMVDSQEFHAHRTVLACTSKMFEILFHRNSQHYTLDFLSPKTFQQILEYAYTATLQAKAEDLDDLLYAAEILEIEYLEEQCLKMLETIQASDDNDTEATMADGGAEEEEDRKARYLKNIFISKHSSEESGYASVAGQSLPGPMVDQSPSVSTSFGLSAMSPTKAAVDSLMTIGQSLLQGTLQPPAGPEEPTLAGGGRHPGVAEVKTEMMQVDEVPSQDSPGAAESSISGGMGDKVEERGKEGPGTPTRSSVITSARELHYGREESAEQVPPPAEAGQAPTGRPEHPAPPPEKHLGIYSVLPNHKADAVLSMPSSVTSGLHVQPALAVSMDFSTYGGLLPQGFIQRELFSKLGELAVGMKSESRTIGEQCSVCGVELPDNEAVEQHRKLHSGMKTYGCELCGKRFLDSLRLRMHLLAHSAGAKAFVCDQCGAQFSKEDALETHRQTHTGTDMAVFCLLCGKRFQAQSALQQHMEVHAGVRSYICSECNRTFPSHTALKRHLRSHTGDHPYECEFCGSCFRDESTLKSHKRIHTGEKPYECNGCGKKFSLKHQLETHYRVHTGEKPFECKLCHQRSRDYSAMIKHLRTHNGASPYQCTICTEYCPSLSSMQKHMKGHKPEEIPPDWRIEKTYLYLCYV

[10] = HEK293 cells, 5 nM, 3 hours, 1 μM losartan pre-treatment
[11] = HEK293 cells transfected with scrambled control siRNA

Chain of endogenous human RER of HEK293 cells (human) (O75787 17-350): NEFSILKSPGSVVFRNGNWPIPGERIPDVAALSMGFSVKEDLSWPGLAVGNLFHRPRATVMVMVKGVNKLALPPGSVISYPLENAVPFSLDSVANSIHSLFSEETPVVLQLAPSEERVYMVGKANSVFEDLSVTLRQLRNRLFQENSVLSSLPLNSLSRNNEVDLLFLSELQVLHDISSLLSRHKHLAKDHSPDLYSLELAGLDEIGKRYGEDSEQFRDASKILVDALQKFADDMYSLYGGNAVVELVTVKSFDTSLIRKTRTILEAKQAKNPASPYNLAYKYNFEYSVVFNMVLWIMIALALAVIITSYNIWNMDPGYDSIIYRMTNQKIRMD

B1: human recombinant renin (mammalian expression) (ligand, UniProt P00797 67-406, looked up)
chain: LTLGNTTSSVILTNYMDTQYYGEIGIGTPPQTFKVVFDTGSSNVWVPSSKCSRLYTACVYHKLFDASDSSSYKHNGTELTLRYSTGTVSGFLSQDIITVGGITVTQMFGEVTEMPALPFMLAEFDGVVGMGFIEQAIGRVTPIFDNIISQGVLKEDVFSFYYNRDSENSQSLGGQIVLGGSDPQHYEGNFHYINLIKTGVWQIQMKGVSVGSSTLLCEDGCLALVDTGASYISGSTSSIEKLMEALGAKKRLFDYVVKCNEGPTLPDISFHLGGKEYTLTSADYVFQESYSSKKLCTLAIHAMDIPPPTGPTWALGATFIRKFYTEFDRRNNRIGFALAR
Question: Which “RER mRNA (first column set to 100%)” value ([1]; HEK293 cells with PLZF overexpression (pCEP4-PLZF) plus renin stimulation) does the source give for B1 here?
Answer: 45.4±4.7%

Question: And the “RER mRNA (first column set to 100%)” value ([1]; HEK293 cells without PLZF overexpression, renin stimulation vs vehicle)?
Answer: 80.6±3.3%

Question: And the “RER mRNA, % of vehicle control” value [1, 10]?
Answer: 59.2%

Question: What about the “increase of PI3K-p85α mRNA relative to vehicle control” value ([2]; HEK293 cells with PLZF overexpression) of the same molecule?
Answer: 105.2±6.74%

Question: And the “increase of PI3K-p85α mRNA relative to vehicle control” value ([2]; HEK293 cells without PLZF overexpression)?
Answer: 30.2±7.9%

Question: And the “PI3K-p85α mRNA, % of vehicle control” value [2, 10]?
Answer: 171.8%

Question: And the “increase in PI3K-p85α promoter activity” value [3]?
Answer: 45%

Question: What about the PI3K-p85α mRNA (real-time PCR), HEK293 cells with PLZF overexpression [4] of the same molecule?
Answer: 105 % increase

Question: And the PI3K-p85α mRNA (real-time PCR), HEK293 cells without PLZF overexpression [4]?
Answer: 30.2 % increase

Question: And the PI3K-p85α mRNA after 3 hours, 5 nM renin, HEK293 cells (% of vehicle control) [4]?
Answer: 172

Question: And the PI3K-p85α promoter activity (luciferase reporter) in PLZF-overexpressing HEK293 cells [4]?
Answer: 45 % increase

Question: What about the PLZF recruitment to the RER promoter (ChIP with real-time PCR) in HEK293 cells [4] of the same molecule?
Answer: 6 fold

Question: And the RER mRNA (real-time PCR) in HEK293 cells after renin stimulation combined with PLZF transfection [4]?
Answer: 45.4 % of control

Question: And the RER mRNA (real-time PCR) in HEK293 cells after renin stimulation, without PLZF overexpression [4]?
Answer: 80.6 % of control

Question: And the RER mRNA after 3 hours, 5 nM renin, HEK293 cells (% of vehicle control) [4]?
Answer: 59.2

Question: What about the RER promoter activity (luciferase reporter) in PLZF-overexpressing HEK293 cells [4] of the same molecule?
Answer: 30 % decrease

Question: And the caspase 3/7 activity after 24 hours, 5 nM renin, HEK293 cells [4]?
Answer: 31 % decrease

Question: And the “reduction of caspase 3/7 activity” value (HEK293 cells [5])?
Answer: 31%

Question: What about the “increase of viable cell number compared to vehicle” value (HEK293 cells [6]) of the same molecule?
Answer: 103.6%

Question: And the “translocation of PLZF from the cytoplasm to the nucleus” value [7]?
Answer: clear increase in nuclear PLZF

Question: What about the “decrease in the activity of a wild type RER promoter” value [8] of the same molecule?
Answer: about 30%

B2: prorenin (ligand, UniProt P00797 24-406, looked up, species assumed)
pro-form: LPTDTTTFKRIFLKRMPSIRESLKERGVDMARLGPEWSQPMKRLTLGNTTSSVILTNYMDTQYYGEIGIGTPPQTFKVVFDTGSSNVWVPSSKCSRLYTACVYHKLFDASDSSSYKHNGTELTLRYSTGTVSGFLSQDIITVGGITVTQMFGEVTEMPALPFMLAEFDGVVGMGFIEQAIGRVTPIFDNIISQGVLKEDVFSFYYNRDSENSQSLGGQIVLGGSDPQHYEGNFHYINLIKTGVWQIQMKGVSVGSSTLLCEDGCLALVDTGASYISGSTSSIEKLMEALGAKKRLFDYVVKCNEGPTLPDISFHLGGKEYTLTSADYVFQESYSSKKLCTLAIHAMDIPPPTGPTWALGATFIRKFYTEFDRRNNRIGFALAR
modifications: pro-form
Question: What does the source list for B2?
Answer: RER mRNA, % of vehicle control [1, 11]: 59.7%; RER mRNA, % of vehicle control [1, 10]: 63.6%; PI3K-p85α mRNA, % of vehicle control [2, 11]: 212.8%; PI3K-p85α mRNA, % of vehicle control [2, 10]: 175.8%; PI3K-p85α mRNA after 3 hours, 5 nM prorenin, HEK293 cells (% of vehicle control) [4]: 176; PI3K-p85α mRNA, prorenin, HEK293 cells with scrambled control siRNA (% of vehicle control) [4]: 213; RER mRNA after 3 hours, 5 nM prorenin, HEK293 cells (% of vehicle control) [4]: 63.6; RER mRNA, prorenin, HEK293 cells with scrambled control siRNA (% of vehicle control) [4]: 59.7; caspase 3/7 activity after 24 hours, 5 nM prorenin, HEK293 cells [4]: 35.7 % decrease; caspase 3/7 activity, prorenin, HEK293 cells with scrambled control siRNA [4]: 53.4 % decrease; viable cell number after 24 hours, 5 nM prorenin, HEK293 cells [4]: 124 % increase; viable cell number, prorenin, HEK293 cells with scrambled control siRNA [4]: 87.5 % increase; attenuation of caspase 3/7 activity (HEK293 cells [5]; [11]): 53.4%; reduction of caspase 3/7 activity (HEK293 cells [5]): 35.7%; increase of viable cell number (HEK293 cells [6]; [11]): 87.5%; increase of viable cell number compared to vehicle (HEK293 cells [6]): 123.8%

B3: RER promoter PLZF element, native (dsDNA)
DNA 1: CTTAACTACAGTTTTCACTGG
DNA 2: CCAGTGAAAACTGTAGTTAAG
Question: B3 was tested. Which binding signal [9] did it give?
Answer: 6 fold

Reference: US20110190142A1, “DETERMINATION OF RENIN-PRORENIN RECEPTOR ACTIVITY” (Charite- Universitatsmedizin Berlin, priority 2006, published 2011)
